# Laboratory results taken from article PMC5392723.
# Changes are numbered by the printed parent chain.
# T1: Glo qRRM2 (Drosophila, UniProt Q9VGH5 146-225)
# T1 sequence: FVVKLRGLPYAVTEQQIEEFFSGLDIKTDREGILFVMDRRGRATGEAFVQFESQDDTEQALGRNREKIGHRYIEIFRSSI
# T2: Glo qRRM1 (Drosophila, UniProt Q9VGH5 49-129)
# T2 sequence: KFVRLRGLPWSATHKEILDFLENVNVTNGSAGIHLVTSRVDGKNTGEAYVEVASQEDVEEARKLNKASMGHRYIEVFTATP
# T3: Glo qRRM3 (Drosophila, UniProt Q9VGH5 476-565)
# T3 sequence: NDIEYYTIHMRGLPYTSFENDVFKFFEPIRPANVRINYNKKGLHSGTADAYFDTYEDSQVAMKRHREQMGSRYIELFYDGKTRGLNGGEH
# T4: Glo qRRM1,2 R52A,K149A (Drosophila, UniProt Q9VGH5 49-225, R52A;K149A)
# T4 sequence: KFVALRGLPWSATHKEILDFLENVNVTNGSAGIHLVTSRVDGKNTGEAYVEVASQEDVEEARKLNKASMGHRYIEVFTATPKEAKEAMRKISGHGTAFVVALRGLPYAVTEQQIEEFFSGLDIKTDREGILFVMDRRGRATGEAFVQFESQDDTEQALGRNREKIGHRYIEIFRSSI
# T5: Glo qRRM1,2 W58A (Drosophila, UniProt Q9VGH5 49-225, W58A)
# T5 sequence: T4 sequence with A4R, W10A, A101K
# B1: G-tract RNA 5'-AGGGA (ssRNA)
# RNA: AGGGA
# How the values were obtained:
# Assay in all cases: EMSA
# [1] = molecular target: T1, Glo qRRM2
# [2] = molecular target: T2, Glo qRRM1
# [3] = molecular target: T3, Glo qRRM3
# [4] = molecular target: T4, Glo qRRM1,2 R52A,K149A
# [5] = molecular target: T5, Glo qRRM1,2 W58A
binder,measurement,setting,value
B1,Kd,[1],620 nM
same,Kd,[2],180 nM
same,Kd,[3],170 nM
same,binding result,[4],binds
same,binding result,[5],binds
